Reference: publication PMC5125011, “Soluble Siglec-5 associates to PSGL-1 and displays anti-inflammatory activity” (Scientific Reports, 2016)

How the values were obtained:
[1] = target: T1, human soluble recombinant PSGL1 fused to human Fc (human, UniProt Q14242 18-320); assay: ELISA; sPSGL1/Fc (0.25 μg/well) adsorbed to microtiter wells; Tris-buffered saline with 2.5 mM CaCl2, 0.1% Tween-20, 3% BSA; bound sSiglec-5 probed with biotin-labeled polyclonal anti-Siglec-5 antibodies, bound P-selectin with a monoclonal anti-P-selectin antibody; controls with EDTA (5 mM) or polyclonal anti-Siglec-5 antibodies (6 μM) inhibited binding; details: both partners purified
T1 construct: P-selectin glycoprotein ligand-1 (PSGL1), human, soluble ectodomain; Sialylated glycoprotein; also called sPSGL1/Fc; soluble PSGL1/Fc; source: bought: R&D Systems (cat# 3345-PS)
T1 sequence (looked up): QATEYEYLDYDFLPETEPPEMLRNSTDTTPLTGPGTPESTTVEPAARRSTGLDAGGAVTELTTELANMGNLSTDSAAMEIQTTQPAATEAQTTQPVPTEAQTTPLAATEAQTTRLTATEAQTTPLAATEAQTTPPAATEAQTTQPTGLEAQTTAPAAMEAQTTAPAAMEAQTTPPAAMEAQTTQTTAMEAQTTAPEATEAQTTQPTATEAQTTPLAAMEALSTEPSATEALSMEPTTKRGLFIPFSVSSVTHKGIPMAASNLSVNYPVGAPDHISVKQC

[2] = target: the molecule itself; assay: SDS-PAGE under non-reduced and reduced conditions; purified sSiglec-5/C4BP, Coomassie-staining; about 525 kDa non-reduced, 75 kDa reduced; heptamer to single chains

B1: Recombinant soluble Siglec-5 fused to human Fc (Fc fusion, UniProt O15389 17-441, looked up)
chain: EKPVYELQVQKSVTVQEGLCVLVPCSFSYPWRSWYSSPPLYVYWFRDGEIPYYAEVVATNNPDRRVKPETQGRFRLLGDVQKKNCSLSIGDARMEDTGSYFFRVERGRDVKYSYQQNKLNLEVTALIEKPDIHFLEPLESGRPTRLSCSLPGSCEAGPPLTFSWTGNALSPLDPETTRSSELTLTPRPEDHGTNLTCQMKRQGAQVTTERTVQLNVSYAPQTITIFRNGIALEILQNTSYLPVLEGQALRLLCDAPSNPPAHLSWFQGSPALNATPISNTGILELRRVRSAEEGGFTCRAQHPLGFLQIFLNLSVYSLPQLLGPSCSWEAEGLHCRCSFRARPAPSLCWRLEEKPLEGNSSQGSFKVNSSSAGPWANSSLILHGGLSSDLKVSCKAWNIYGSQSGSVLLLQGRSNLGTGVVPAAL
notes: Siglec-5, soluble; also called sSiglec-5/Fc; sSg-5/Fc; source: bought: R&D Systems (cat# 1072-SL), produced in mouse myeloma cell-line NS0
EC50 [1]: 49 ± 11 nM

B2: heptameric Siglec-5/C4BP fusion protein (other, UniProt O15389 17-434, looked up)
chain: EKPVYELQVQKSVTVQEGLCVLVPCSFSYPWRSWYSSPPLYVYWFRDGEIPYYAEVVATNNPDRRVKPETQGRFRLLGDVQKKNCSLSIGDARMEDTGSYFFRVERGRDVKYSYQQNKLNLEVTALIEKPDIHFLEPLESGRPTRLSCSLPGSCEAGPPLTFSWTGNALSPLDPETTRSSELTLTPRPEDHGTNLTCQMKRQGAQVTTERTVQLNVSYAPQTITIFRNGIALEILQNTSYLPVLEGQALRLLCDAPSNPPAHLSWFQGSPALNATPISNTGILELRRVRSAEEGGFTCRAQHPLGFLQIFLNLSVYSLPQLLGPSCSWEAEGLHCRCSFRARPAPSLCWRLEEKPLEGNSSQGSFKVNSSSAGPWANSSLILHGGLSSDLKVSCKAWNIYGSQSGSVLLLQGRSNLGTETPEGCEQVLTGKRLMQCLPNPEDVKMALEVYKLSLEIEQLELQRDSARQSTLDKEL
notes: Siglec-5 ectodomain, residues 17-434; also called sSiglec-5/C4BP; sSg-5/C4BP
stoichiometry N [2]: 7
EC50 [1]: 8 ± 1 nM
